Test results as given in patent US20050054023A1 (BOARD OF SUPERVISORS OF LOUISIANA STATE UNIVERSITY AND …, published 2005).

B1: type 1 human TH-Ser31 peptide EAIMSPRFK (peptide)
peptide: EAIMSPRFK
B2: rat TH-Ser31 peptide KQAEAVTSPR (peptide)
peptide: KQAEAVTSPR
B3: ERKtide (peptide)
peptide: ATGPLSPFGRR
B4: type 1 human TH-Ser31 peptide YQAEAIMSPRFIGRRQ (peptide)
peptide: YQAEAIMSPRFIGRRQ
B5: MBPtide (Thr97) … (peptide)
peptide: APRTPGGR

Biological target: extracellular signal-regulated protein kinase 2 (purified, recombinant, activated ERK2)
Test: cell-based or functional assay

Sequence of extracellular signal-regulated protein kinase 2 (purified, recombinant, activated ERK2) (P28482 2-360): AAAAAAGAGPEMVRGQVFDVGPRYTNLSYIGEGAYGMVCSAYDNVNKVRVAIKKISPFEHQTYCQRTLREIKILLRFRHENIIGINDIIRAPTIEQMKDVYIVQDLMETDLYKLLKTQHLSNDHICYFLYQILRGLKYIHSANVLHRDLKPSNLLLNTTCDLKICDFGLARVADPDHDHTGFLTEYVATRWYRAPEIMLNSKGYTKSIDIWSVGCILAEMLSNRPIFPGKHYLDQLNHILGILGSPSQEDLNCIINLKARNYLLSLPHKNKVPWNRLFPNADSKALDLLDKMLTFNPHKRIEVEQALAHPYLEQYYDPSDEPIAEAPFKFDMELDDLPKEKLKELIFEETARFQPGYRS

| Binder | V/K |
| --- | --- |
| B1 | 28 |
| B2 | 5 |
| B3 | 136 |
| B4 | 80 |
| B5 | 23 |
